Measurements from patent US20170158747A1.

What was measured:
Assay in all cases: cell-based or functional assay
[1] = biological target: cynomolgus monkey IL10 receptor on cynomolgus whole blood cells (cynomolgus monkey)
[2] = biological target: human IL10 receptor (IL10R1/R2 receptor complex) on human whole blood cells (human) (UniProt Q13651)
[3] = biological target: mouse IL10 receptor on mouse cells (whole blood, colon) (mouse) (UniProt Q61727)
Chain of mouse IL10 receptor on mouse cells (whole blood, colon) (mouse) (Q61727 17-575, chain 1 of 2): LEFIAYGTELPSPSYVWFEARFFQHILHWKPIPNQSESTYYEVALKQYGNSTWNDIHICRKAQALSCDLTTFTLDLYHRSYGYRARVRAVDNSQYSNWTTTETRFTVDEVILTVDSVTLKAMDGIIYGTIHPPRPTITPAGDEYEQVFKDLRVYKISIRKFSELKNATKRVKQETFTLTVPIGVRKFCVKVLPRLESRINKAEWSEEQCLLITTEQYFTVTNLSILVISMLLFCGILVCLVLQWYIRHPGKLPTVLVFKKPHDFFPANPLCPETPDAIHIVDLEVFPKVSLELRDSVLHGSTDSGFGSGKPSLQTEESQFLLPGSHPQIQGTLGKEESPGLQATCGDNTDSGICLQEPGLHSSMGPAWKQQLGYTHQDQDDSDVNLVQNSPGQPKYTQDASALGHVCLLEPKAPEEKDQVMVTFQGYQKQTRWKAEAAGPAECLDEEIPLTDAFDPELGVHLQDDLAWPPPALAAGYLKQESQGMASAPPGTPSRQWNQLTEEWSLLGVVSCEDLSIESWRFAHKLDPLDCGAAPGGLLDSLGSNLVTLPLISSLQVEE
Chain of mouse IL10 receptor on mouse cells (whole blood, colon) (mouse) (Q61190 20-349, chain 2 of 2, further chain): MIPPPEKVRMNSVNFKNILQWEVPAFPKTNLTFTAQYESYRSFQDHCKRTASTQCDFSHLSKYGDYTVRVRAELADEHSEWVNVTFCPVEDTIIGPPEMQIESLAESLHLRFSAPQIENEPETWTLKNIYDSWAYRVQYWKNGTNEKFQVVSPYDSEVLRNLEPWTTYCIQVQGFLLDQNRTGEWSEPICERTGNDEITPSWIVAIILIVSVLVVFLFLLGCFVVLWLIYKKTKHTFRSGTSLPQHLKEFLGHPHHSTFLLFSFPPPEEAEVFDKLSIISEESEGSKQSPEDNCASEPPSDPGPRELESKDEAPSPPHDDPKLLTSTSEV

Chain of human IL10 receptor (IL10R1/R2 receptor complex) on human whole blood cells (human) (Q13651 22-578, chain 1 of 2): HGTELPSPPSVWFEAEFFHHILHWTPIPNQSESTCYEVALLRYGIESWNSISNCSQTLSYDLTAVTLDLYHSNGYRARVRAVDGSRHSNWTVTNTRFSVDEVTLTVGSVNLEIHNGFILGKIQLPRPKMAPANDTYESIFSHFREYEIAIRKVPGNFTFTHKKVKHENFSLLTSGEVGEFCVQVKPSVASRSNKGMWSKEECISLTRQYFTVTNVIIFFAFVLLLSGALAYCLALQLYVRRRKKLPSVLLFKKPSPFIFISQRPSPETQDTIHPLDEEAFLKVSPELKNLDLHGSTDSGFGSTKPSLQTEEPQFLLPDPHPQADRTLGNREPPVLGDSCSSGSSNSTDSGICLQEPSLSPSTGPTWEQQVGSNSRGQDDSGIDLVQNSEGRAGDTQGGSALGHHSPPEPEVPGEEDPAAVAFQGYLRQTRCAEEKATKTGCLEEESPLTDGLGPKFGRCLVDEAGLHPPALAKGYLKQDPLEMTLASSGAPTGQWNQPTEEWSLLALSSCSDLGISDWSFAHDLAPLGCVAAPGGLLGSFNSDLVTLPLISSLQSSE
Chain of human IL10 receptor (IL10R1/R2 receptor complex) on human whole blood cells (human) (Q08334 20-325, chain 2 of 2, further chain): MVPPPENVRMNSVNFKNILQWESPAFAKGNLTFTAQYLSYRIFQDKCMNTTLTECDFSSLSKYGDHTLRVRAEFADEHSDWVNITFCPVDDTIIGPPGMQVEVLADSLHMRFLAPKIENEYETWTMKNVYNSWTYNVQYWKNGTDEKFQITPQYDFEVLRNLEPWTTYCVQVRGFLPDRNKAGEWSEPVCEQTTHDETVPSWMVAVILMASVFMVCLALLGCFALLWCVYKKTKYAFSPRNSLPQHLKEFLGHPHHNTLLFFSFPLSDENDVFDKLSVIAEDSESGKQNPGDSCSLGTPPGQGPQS

- IC30, inhibition of LPS-induced TNFα production, ex vivo cynomolgus whole blood [1]: 0.44 pM
- IC50, inhibition of LPS-induced TNFα production, ex vivo cynomolgus whole blood [1]: 0.65 pM
- IC90, inhibition of LPS-induced TNFα production, ex vivo cynomolgus whole blood [1]: 1.9 pM
- IC30, inhibition of LPS-induced TNFα production, ex vivo human whole blood [2]: 1.3 pM
- IC50, inhibition of LPS-induced TNFα production, ex vivo human whole blood [2]: 2.8 pM
- IC90, inhibition of LPS-induced TNFα production, ex vivo human whole blood [2]: 22.8 pM
- IC30, inhibition of LPS-induced TNFα production, ex vivo mouse whole blood [3]: 0.57 pM
- IC50, inhibition of LPS-induced TNFα production, ex vivo mouse whole blood [3]: 1.7 pM
- IC90, inhibition of LPS-induced TNFα production, ex vivo mouse whole blood [3]: 15 pM
Substance: recombinant human IL10 (from UniProt P22301 19-178) (ligand)
